Test results reported in patent publication US20210275644A1 (OCTAPHARMA, published 2021).

T1: Recombinant SIG-5 Fc-fusion protein (R&D Systems) (human, UniProt O15389 17-434, limits assumed)
T1 construct: Bought from R&D Systems; Held on the plate by protein A; also called SIGLEC 5; not shown: Fc part of the bought fusion protein
T1 sequence (looked up): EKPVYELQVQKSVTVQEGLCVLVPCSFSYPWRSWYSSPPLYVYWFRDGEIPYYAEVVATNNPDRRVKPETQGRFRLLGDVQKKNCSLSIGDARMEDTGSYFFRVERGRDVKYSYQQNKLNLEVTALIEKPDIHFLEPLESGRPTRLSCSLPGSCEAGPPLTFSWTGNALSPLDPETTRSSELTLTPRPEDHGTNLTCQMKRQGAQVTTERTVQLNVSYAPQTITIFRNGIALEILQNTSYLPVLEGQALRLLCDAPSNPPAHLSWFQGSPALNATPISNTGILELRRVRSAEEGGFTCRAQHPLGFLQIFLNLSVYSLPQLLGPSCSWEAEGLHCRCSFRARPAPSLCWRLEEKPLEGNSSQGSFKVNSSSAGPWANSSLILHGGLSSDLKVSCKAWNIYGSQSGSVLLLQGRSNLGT

B1: Cluster 1 fragment (tryptic glycopeptide of plasma derived vWF, AA 449 to 511) (peptide)
peptide: VTLNPSDPEHC(Maleimide‑PEG2‑Biotin)QIC(Maleimide‑PEG2‑Biotin)HC(Maleimide‑PEG2‑Biotin)DVVNLTC(Maleimide‑PEG2‑Biotin)EAC(Maleimide‑PEG2‑Biotin)QEPGGLVVPPTDAPVSPTTLYVEDISEPPLHDFYC(Maleimide‑PEG2‑Biotin)SR
modifications: also: natural O-glycans (sialylated core 2), sites not given here
notes: also called Cluster I; O-glycosylation Cluster I
B2: Recombinant SIG-10 Fc-fusion protein (R&D Systems) (Fc fusion, human, UniProt Q96LC7 17-546, looked up)
chain: MDGRFWIRVQESVMVPEGLCISVPCSFSYPRQDWTGSTPAYGYWFKAVTETTKGAPVATNHQSREVEMSTRGRFQLTGDPAKGNCSLVIRDAQMQDESQYFFRVERGSYVRYNFMNDGFFLKVTALTQKPDVYIPETLEPGQPVTVICVFNWAFEECPPPSFSWTGAALSSQGTKPTTSHFSVLSFTPRPQDHNTDLTCHVDFSRKGVSAQRTVRLRVAYAPRDLVISISRDNTPALEPQPQGNVPYLEAQKGQFLRLLCAADSQPPATLSWVLQNRVLSSSHPWGPRPLGLELPGVKAGDSGRYTCRAENRLGSQQRALDLSVQYPPENLRVMVSQANRTVLENLGNGTSLPVLEGQSLCLVCVTHSSPPARLSWTQRGQVLSPSQPSDPGVLELPRVQVEHEGEFTCHARHPLGSQHVSLSLSVHYSPKLLGPSCSWEAEGLHCSCSSQASPAPSLRWWLGEELLEGNSSQDSFEVTPSSAGPWANSSLSLHGGLSSGLRLRCEAWNVHGAQSGSILQLPDKKGLIST
notes: Bought from R&D Systems; Held on the plate by protein A; not shown: Fc part of the bought fusion protein
B3: Recombinant SIG-F (mouse equivalent of human SIG-8) Fc-fusion protein (R&D Systems) (Fc fusion)
chain: TDGYSLSVTGSVTVQEGLCVFVACQVQYPNSKGPVFGYWFREGANIFSGSPVATNDPQRSVLKEAQGRFYLMGKENSHNCSLDIRDAQKIDTGTYFFRLDGSVKYSFQKSMLSVLVIALTEVPNIQVTSTLVSGNSTKLLCSVPWACEQGTPPIFSWMSSALTSLGHRTTLSSELNLTPRPQDNGTNLTCQVNLPGTGVTVERTQQLSVIYAPQKMTIRVSWGDDTGTKVLQSGASLQIQEGESLSLVCMADSNPPAVLSWERPTQKPFQLSTPAELQLPRAELEDQGKYICQAQNSQGAQTASVSLSIRSLLQLLGPSCSFEGQGLHCSCSSRAWPAPSLRWRLGEGVLEGNSSNGSFTVKSSSAGQWANSSLILSMEFSSNHRLSCEAWSDNRVQRATILLVSGPKVSQAGKSETSRGTVL
notes: Bought from R&D Systems; not shown: Fc part of the bought fusion protein

Legend:
[1] = molecular target: B3; assay: ELISA: SIGLEC-Fc captured on a protein A plate (500 ng/well), biotinylated cluster fragment at 4 µg/mL, streptavidin-HRP, A492, single concentration; sheet says Siglec 8, legend says SIG-F
[2] = molecular target: T2, Recombinant SIG-7 Fc-fusion protein (R&D Systems) (human, UniProt Q9Y286 19-357, limits assumed); assay: ELISA: SIGLEC-Fc captured on a protein A plate (500 ng/well), biotinylated cluster fragment at 4 µg/mL, streptavidin-HRP, A492, single concentration
T2 construct: Bought from R&D Systems; Held on the plate by protein A; also called SIGLEC 7; not shown: Fc part of the bought fusion protein
T2 sequence (Q9Y286 19-357 limits assumed): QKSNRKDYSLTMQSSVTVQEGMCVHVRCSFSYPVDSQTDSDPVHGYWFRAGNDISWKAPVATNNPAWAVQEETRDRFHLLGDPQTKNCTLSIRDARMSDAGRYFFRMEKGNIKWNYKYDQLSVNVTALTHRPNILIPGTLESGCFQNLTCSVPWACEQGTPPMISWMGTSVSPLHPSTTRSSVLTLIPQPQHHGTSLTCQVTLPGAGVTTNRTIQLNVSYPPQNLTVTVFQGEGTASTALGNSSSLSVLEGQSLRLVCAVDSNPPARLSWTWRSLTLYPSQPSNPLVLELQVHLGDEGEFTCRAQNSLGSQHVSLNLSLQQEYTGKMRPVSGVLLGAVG

[3] = molecular target: T1, Recombinant SIG-5 Fc-fusion protein …; assay: as above
[4] = molecular target: T3, Recombinant SIG-9 Fc-fusion protein (R&D Systems) (human, UniProt Q9Y336 18-348); assay: as above
T3 construct: Bought from R&D Systems; Held on the plate by protein A; also called SIGLEC 9; not shown: Fc part of the bought fusion protein
T3 sequence (Q9Y336 18-348 limits assumed): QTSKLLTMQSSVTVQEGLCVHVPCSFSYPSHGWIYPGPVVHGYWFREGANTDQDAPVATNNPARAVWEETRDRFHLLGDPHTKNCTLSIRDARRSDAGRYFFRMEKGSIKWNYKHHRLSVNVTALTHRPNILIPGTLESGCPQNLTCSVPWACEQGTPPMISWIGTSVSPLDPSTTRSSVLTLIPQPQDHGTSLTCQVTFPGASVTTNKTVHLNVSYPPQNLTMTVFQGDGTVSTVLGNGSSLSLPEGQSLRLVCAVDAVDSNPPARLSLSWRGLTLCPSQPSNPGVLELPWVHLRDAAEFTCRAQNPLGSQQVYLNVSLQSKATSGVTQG

[5] = molecular target: B2; assay: as above
[6] = molecular target: T4, Plasma derived VWF (pdVWF), biotinylated (human, UniProt P04275 764-2813, biotinylated with EZ-Link Sulfo-NHS-Biotin; natural N- and O-glycans of plasma vWF); assay: ELISA: SIGLEC-Fc captured on a protein A plate (500 ng/well), biotinylated plasma derived vWF 0-0.8 µg/mL, streptavidin-HRP, A492
T4 construct: Plasma-derived multimeric glycoprotein; also called von Willebrand factor; full length vWF
T4 sequence (P04275 764-2813 limits assumed): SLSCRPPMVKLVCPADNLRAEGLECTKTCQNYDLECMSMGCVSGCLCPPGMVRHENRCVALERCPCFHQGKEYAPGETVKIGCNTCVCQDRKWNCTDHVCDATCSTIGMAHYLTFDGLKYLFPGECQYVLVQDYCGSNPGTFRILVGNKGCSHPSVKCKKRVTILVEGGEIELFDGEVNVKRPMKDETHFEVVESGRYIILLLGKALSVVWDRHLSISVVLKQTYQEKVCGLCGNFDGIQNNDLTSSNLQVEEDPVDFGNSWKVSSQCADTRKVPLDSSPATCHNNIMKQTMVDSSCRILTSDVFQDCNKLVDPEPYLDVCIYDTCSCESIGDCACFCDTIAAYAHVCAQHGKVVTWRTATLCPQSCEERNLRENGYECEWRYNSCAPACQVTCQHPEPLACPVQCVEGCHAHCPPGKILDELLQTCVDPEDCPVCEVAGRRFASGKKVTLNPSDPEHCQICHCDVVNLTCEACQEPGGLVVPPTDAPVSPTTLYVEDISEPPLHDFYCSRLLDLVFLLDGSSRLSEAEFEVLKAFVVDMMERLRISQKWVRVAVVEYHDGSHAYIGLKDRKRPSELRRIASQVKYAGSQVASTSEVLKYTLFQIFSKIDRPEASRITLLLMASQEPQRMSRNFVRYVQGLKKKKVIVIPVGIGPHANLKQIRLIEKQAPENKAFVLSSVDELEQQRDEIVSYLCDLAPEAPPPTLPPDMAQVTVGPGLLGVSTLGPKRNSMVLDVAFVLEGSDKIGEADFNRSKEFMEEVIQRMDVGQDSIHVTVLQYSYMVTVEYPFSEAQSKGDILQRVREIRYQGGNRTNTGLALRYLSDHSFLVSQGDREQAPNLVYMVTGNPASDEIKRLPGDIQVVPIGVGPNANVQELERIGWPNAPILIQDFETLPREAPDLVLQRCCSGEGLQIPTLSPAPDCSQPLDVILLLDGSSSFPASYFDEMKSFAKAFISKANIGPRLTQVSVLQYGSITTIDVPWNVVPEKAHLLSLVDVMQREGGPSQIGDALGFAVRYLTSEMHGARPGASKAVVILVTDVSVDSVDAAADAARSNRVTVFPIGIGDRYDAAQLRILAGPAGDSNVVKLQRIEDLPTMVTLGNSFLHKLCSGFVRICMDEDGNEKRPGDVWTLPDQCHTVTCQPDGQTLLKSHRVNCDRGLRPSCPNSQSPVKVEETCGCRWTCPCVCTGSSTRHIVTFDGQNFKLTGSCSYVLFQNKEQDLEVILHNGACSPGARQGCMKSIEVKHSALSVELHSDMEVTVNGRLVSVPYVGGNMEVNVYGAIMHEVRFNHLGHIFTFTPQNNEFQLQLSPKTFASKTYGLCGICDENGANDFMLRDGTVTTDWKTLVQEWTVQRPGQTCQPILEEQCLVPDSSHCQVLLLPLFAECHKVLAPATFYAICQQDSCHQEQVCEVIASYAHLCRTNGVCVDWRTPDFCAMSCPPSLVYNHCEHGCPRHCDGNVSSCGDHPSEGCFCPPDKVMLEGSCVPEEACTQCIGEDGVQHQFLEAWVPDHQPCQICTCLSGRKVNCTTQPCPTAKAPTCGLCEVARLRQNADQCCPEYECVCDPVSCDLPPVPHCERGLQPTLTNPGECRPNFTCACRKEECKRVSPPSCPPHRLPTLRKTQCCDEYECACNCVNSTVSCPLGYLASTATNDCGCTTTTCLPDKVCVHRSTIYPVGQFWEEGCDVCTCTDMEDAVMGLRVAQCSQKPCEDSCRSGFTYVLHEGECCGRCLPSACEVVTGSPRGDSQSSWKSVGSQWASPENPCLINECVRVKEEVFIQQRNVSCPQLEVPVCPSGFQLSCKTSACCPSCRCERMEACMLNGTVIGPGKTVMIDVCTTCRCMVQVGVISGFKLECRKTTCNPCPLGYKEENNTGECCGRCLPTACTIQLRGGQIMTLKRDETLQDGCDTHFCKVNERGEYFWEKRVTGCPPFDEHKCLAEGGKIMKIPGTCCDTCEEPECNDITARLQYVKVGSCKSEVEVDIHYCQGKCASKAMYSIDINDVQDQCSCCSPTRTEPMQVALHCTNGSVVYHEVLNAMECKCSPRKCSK

[7] = molecular target: T5, vWF C-terminal fragment (V8 protease digest of plasma derived vWF) (human, UniProt P04275 2129-2813, biotinylated with EZ-Link Sulfo-NHS-Biotin); assay: ELISA: SIGLEC-Fc captured on a protein A plate (500 ng/well), biotinylated vWF fragment at 1 µg/mL, streptavidin-HRP, A492, single concentration; sheet says Siglec 8, legend says SIG-F
T5 construct: the real molecule is only its C-terminal part; also called C-terminal vWF fragment
T5 sequence (P04275 2129-2813 limits assumed): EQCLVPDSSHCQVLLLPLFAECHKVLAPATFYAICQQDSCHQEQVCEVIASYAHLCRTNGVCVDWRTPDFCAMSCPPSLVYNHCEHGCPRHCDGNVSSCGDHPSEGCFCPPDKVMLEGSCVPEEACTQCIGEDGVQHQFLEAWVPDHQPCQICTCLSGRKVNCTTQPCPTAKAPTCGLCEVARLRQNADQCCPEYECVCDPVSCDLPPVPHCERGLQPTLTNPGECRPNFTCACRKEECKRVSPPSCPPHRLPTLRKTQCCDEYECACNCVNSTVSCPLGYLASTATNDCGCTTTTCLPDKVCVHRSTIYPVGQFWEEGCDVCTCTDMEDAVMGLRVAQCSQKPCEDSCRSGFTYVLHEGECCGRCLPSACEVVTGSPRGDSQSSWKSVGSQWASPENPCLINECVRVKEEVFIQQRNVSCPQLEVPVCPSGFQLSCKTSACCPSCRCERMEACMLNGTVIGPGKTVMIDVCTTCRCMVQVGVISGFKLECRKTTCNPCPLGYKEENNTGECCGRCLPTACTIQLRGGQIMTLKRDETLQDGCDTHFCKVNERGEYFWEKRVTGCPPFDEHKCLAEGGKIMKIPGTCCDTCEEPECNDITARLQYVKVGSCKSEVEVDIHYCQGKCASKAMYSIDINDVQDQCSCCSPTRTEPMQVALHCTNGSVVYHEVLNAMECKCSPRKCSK

[8] = molecular target: T6, Seq11 (recombinant vWF fragment AA 1-505 of SEQ ID NO: 1 with C-terminal Strep-Tag, from HEK 293) (human, UniProt P04275 764-1268, four O-glycosylation sites 485, 492, 493, 500 occupied (core 1, core 2 and/or extended core 1, sialylated)); assay: SIGLEC ELISA, Scatchard analysis of the binding curve (apparent KD); printed SIGLEC 8, ELISA done as in Examples 8 and 9 with SIG-F
T6 construct: Expressed in HEK293 / MEXi-293 cells, purified on Strep-Tactin; not shown: C-terminal Twin-Strep-tag of the pDSG vector (IBA)
T6 sequence (P04275 764-1268): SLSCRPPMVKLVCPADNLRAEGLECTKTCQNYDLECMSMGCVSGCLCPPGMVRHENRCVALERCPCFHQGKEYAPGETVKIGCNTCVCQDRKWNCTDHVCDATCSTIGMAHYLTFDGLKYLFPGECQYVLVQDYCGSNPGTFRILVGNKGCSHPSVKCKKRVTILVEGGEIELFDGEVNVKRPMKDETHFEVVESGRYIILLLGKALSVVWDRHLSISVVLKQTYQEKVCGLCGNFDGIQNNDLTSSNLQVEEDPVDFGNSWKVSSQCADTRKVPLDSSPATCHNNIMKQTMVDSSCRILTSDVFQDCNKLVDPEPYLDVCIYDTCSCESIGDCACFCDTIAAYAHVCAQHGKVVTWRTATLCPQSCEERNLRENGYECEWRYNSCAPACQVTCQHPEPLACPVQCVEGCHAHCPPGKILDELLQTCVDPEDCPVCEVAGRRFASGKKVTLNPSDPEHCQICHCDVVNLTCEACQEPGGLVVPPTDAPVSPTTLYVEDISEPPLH

Q: Does B1 bind [1]?
A: no binding (tested: 4 µg/mL)

Q: Does B1 bind [2]?
A: no binding (tested: 4 µg/mL)

Q: Does B1 bind [3]?
A: no binding (tested: 4 µg/mL)

Q: Does B1 bind [4]?
A: no binding (tested: 4 µg/mL)

Q: Does B1 bind [5]?
A: no binding (tested: 4 µg/mL)

Q: Does B2 bind [6]?
A: no binding (tested: 0.8 µg/mL)

Q: Does B3 bind [7]?
A: no binding (tested: 1 µg/mL)

Q: And the Kd [8]?
A: 1030 nM
